Here are results for ten molecules from publication PMC4335062, “Data-Driven Prediction and Design of bZIP Coiled-Coil Interactions” (PLoS Computational Biology, 2015).

Like-named read-outs stand apart in the source and are kept apart here. Where no end group is shown, it is not given here. Where only a bound is given, the exact number is not on record here.

For one experiment, the target named is T1, XBP1 (Homo sapiens, UniProt P17861).
T1 construct: made in house
T1 sequence (P17861 70-133 limits assumed): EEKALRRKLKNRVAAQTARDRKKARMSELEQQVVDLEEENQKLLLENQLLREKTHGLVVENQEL
Description: Direct-binding FRET assay. Conditions: C-terminal rhodamine design. Here is the method:
(§1) The direct binding assay was performed manually in 384-well plates and is similar to a previously described assay. Wells were filled with 20 μL of 1 mM TCEP-HCl. A 4 μM stock of acceptor protein was made fresh in 1 mM TCEP-HCl, and 20 μL was titrated in 2-fold dilutions over the wells. […] The direct-binding FRET data were fit as previously described. Briefly, the Kd of the designed peptide homodimer was experimentally determined and used with previously determined target homodimer Kd values to determine the heterodimer Kd. The homodimer Kd values used for the human bZIPs were from; experiments done by […] et al. used the same protein constructs for the human bZIP proteins, the same buffer conditions, and the same assay. The fitting used a system of ordinary differential equations to describe the concentrations of homo and heterodimers formed by the donor (D) and acceptor (A) as a function of the heterodimer Kd. MATLAB was used to simulate the binding experiment for different Kd values, and the value that gave the best agreement between simulation and experiment was assigned. A minimum 15% change in the donor fluorescence upon titrating the acceptor peptide from 0 to 1000 nM was required for a fit to be attempted. If this minimum was not met, the interaction was classified as “NS” for no signal change. […] For such curves, we removed the first five points and re-fit the data.

The next experiment deals with T2, ATF3 (Homo sapiens, UniProt P18847).
T2 construct: made in house
T2 sequence (P18847 86-149 limits assumed): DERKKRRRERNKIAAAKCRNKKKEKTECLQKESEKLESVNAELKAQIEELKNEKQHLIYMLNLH
Kind of experiment: Direct-binding FRET assay. To be noted: C-terminal rhodamine design, mean or single, read-out: Kd. Here is the method:
as §1

The next experiment deals with JUN (Homo sapiens, UniProt P05412). Kind of experiment: Direct-binding FRET assay. Also on record: made in house. To be noted: 37°C; C-terminal rhodamine design; mean or single; read-out: Kd. The method, then: as §1
The target in a further experiment is XBP1 bZIP (Homo sapiens) (UniProt P17861). To be noted: cited from earlier work.
For experiment [1], the target named is partner bZIP coiled coil (Protein2). To be noted: cited from earlier work. Here is the method:
Supplement pcbi.1004046.s020.csv, table | column: Kd || Fig 4 Designed bZIP-binding peptides inhibit interactions of native bZIP dimers. […] The dissociation constants at the indicated temperatures are Kd ≤ 1 nM for FOS-JUN, Kd ≤1 nM for XBP1-CREBZF, and Kd = 60 nM for ATF4-FOS, according to [18]. Fluorescence intensities were measured at both 37°C and 23°C, a ...

The target of experiment [2] is BATF2 bZIP, C-terminally fluoresceinated (human) (UniProt Q8N1L9). Description: FRET or BRET; direct-binding FRET at 4°C; 10 nM fluorescein-labelled bZIP (donor), rhodamine-labelled design (acceptor) titrated 0 to 1 μM; 150 mM KCl, 50 mM potassium phosphate pH 7.4, 0.1% Tween-20, 0.1% BSA. On the technique in general: In BRET a luciferase serves as donor, and the signal depends on an acceptor being close.
Chain of BATF2 bZIP, C-terminally fluoresceinated (human) (Q8N1L9 whole entry): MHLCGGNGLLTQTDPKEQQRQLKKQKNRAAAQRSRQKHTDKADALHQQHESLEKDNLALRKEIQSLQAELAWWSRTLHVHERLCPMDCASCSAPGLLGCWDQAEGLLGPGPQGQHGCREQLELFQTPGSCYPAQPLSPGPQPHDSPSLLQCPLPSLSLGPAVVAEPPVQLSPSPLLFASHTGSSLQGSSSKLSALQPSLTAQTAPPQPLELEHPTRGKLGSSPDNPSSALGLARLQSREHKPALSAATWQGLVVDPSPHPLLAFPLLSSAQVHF

The target in experiment [3] is T3, Activating Transcription Factor 4 (ATF4) bZIP construct, C-terminally fluoresceinated (human, UniProt P18848 278-351, fluorescein at the C-terminus).
T3 construct: source: previously described, donated by A.W. Reinke [18]
T3 sequence (looked up): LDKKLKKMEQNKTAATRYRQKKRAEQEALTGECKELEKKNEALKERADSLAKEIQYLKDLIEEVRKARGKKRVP
Kind of experiment: FRET or BRET; direct-binding FRET at 37°C; 10 nM fluorescein-labelled bZIP (donor), rhodamine-labelled design (acceptor) titrated 0 to 1 μM; 150 mM KCl, 50 mM potassium phosphate pH 7.4, 0.1% Tween-20, 0.1% BSA. Conditions: both partners purified.

With “AETDQLENRVKDLKKKNESLKEEKRQASNKYKALLTNNRSLKVKA [XBP1-d2]”, the Kd on XBP1 (37°C, mean or single, read-out: Kd) was no less than 5000 nM. Also, the “binding to XBP1” value on XBP1 (4, 23 or 37°C) is recorded as “did not bind detectably”. On to “KDAASLENKKEELKVQNRILVDERKYLQMMNSELKDELAAHE [ATF3-d3]”, for which the dissociation constant (Kd) on ATF3 (4°C) was 117 nM; at ATF3 (37°C) it was no less than 5000 nM.

Take “NDLARLENKAEELKVQNRILVDERKYLQREISELHDELAAHE [ATF3-d1]”: the Kd at ATF3 (37°C) was roughly 1000 nM. Same read-out and setting: the figure for “NLVAQLEKKNEALKAENAALEIERIQLQDKIEELKYELAAIE [ATF3-d2]” is 564 nM. Take “QRALQLQKEKERLEKMNKKLAAEIESLLEERERLESVLNYHE [JUN-d2]”: the dissociation constant Kd on JUN is 1 nM. On to XBP1 bZIP (from UniProt P17861), for which the equilibrium dissociation constant (Kd) with XBP1 bZIP (Homo sapiens) was 8 nM.

B1: ATF2: native human bZIP coiled coil (protein)
chain: MKFKLHVNSARQYKDLWNMSDDKPFLCTAPGCGQRFTNEDHLAVHKHKHEMTLKFGPARNDSVIVADQTPTPTRFLKNCEEVGLFNELASPFENEFKKASEDDIKKMPLDLSPLATPIIRSKIEEPSVVETTHQDSPLPHPESTTSDEKEVPLAQTAQPTSAIVRPASLQVPNVLLTSSDSSVIIQQAVPSPTSSTVITQAPSSNRPIVPVPGPFPLLLHLPNGQTMPVAIPASITSSNVHVPAAVPLVRPVTMVPSVPGIPGPSSPQPVQSEAKMRLKAALTQQHPPVTNGDTVKGHGSGLVRTQSEESRPQSLQQPATSTTETPASPAHTTPQTQSTSGRRRRAANEDPDEKRRKFLERNRAAASRCRQKRKVWVQSLEKKAEDLSSLNGQLQSEVTLLRNEVAQLKQLLLAHKDCPVTAMQKKSGYHTADKDDSSEDISVPSSPHTEAIQHSSVSTSNGVSSTSKAEAVATSVLTQMADQSTEPALSQIVMAPSSQSQPSGS
modifications: fluorescein at the C-terminus (FRET donor) or TAMRA (FRET acceptor), by assay
notes: native human bZIP coiled coil
For B1, the equilibrium dissociation constant (Kd) in experiment [1] (Protein2 = ATF6 (HS), intra, 5000 assigned if Kd >5,000 nM or no binding) is 5000 nM; in experiment [1] (Protein2 = CE20 (CE), inter, 5000 assigned if Kd >5,000 nM or no binding) it was 5000 nM.

B2: ATF5: native human bZIP coiled coil (protein)
chain: MSLLATLGLELDRALLPASGLGWLVDYGKLPPAPAPLAPYEVLGGALEGGLPVGGEPLAGDGFSDWMTERVDFTALLPLEPPLPPGTLPQPSPTPPDLEAMASLLKKELEQMEDFFLDAPPLPPPSPPPLPPPPLPPAPSLPLSLPSFDLPQPPVLDTLDLLAIYCRNEAGQEEVGMPPLPPPQQPPPPSPPQPSRLAPYPHPATTRGDRKQKKRDQNKSAALRYRQRKRAEGEALEGECQGLEARNRELKERAESVEREIQYVKDLLIEVYKARSQRTRSC
modifications: fluorescein at the C-terminus (FRET donor) or TAMRA (FRET acceptor), by assay
notes: native human bZIP coiled coil
Regarding B2, the dissociation constant Kd was 27.8 nM in experiment [1] (Protein2 = CEBPE (HS), intra) and 551 nM in experiment [1] (Protein2 = CI20 (CI), inter).

B3: ATF5-d1, rhodamine-labelled at the N-terminus (designed binder)
chain: GESKEYKKGSGSC(Rhodamine Red C2‑maleimide)GKRIAYLRQRIAELRNENHVLESRIQRMEKEKDALQQDRDHLEYEL
With B3, in experiment [2], the FRET efficiency stood at 0.65.

B4: ATF5-d1, rhodamine-labelled at the C-terminus (designed binder)
chain: GESKEYKKGSGSKRIAYLRQRIAELRNENHVLESRIQRMEKEKDALQQDRDHLEYELGC(Rhodamine Red C2‑maleimide)
notes: solubility linker after the His tag; added at the C-terminus for labelling; source: E. coli RP3098, purified (Ni-NTA under denaturing conditions, reverse-phase HPLC)
As to B4, the Kd in experiment [3] was determined as 4.9 ± 1 nM. In addition, the FRET efficiency in experiment [2] came to 0.31.

By Kd is commonly meant the equilibrium constant for the complex coming apart.
